The source of these data is FireProtDB (doi:10.1016/j.jmb.2005.06.006).

The chains are these.
B1: Tryptophan synthase alpha chain, P0A877 (parent)
chain: MERYESLFAQLKERKEGAFVPFVTLGDPGIEQSLKIIDTLIEAGADALELGIPFSDPLADGPTIQNATLRAFAAGVTPAQCFEMLALIRQKHPTIPIGLLMYANLVFNKGIDEFYAQCEKVGVDSVLVADVPVEESAPFRQAALRHNVAPIFICPPNADDDLLRQIASYGRGYTYLLSRAGVTGAENRAALPLNHLVAKLKEYNAAPPLQGFGISAPDQVKAAIDAGAAGAISGSAIVKIIEQHINEPEKMLAALKVFVQPMKAATRS

Where “and” joins values, the source holds several entries; their conditions need not be identical. Equal entries are not always repeated.

Variants of B1 are the subject of this data set. The note with it: Escherichia coli (strain K12); pH 7.8; 25 °C; Urea; CD; Potassium phosphate 10 mM; transition: 3; structure 1WQ5; whole UniProt chain shown.

For the variant MERYESLFAQLKERKEGAFVPFVTLGDPGIEQSLKIIDTLIEAGADALELGIPFSDPLADGPTIQNATLRAFAAGVTPAQCFEMLALIRQKHPTIPIGLLMYANLVFNKGIDEFYAQCEKVGVDSVLVADVPVEESAPFRQAALRHNVAPIFICPPNADDDLLRQIASYGRGYTYALSRAGVTGAENRAALPLNHLVAKLKEYNAAPPLQGFGISAPDQVKAAIDAGAAGAISGSAIVKIIEQHINEPEKMLAALKVFVQPMKAATRS [L176A], the “ddG of mutation (higher = less stable)” value is 2.88 kcal/mol and 1.13 kcal/mol; the denaturant m value was 2.16 kcal/mol/M and 1.01 kcal/mol/M; the unfolding free energy was 3.25 kcal/mol and 3.59 kcal/mol.
In the case of MERYESLFAQLKERKEGAFVPFVTLGDPGIEQSLKIIDTLIEAGADALELGIPFSDPLADGPTIQNATLRAFAAGVTPAQCFEMLALIRQKHPTIPIGLLMYANLVFNKGIDEFYAQCEKVGVDSVAVADVPVEESAPFRQAALRHNVAPIFICPPNADDDLLRQIASYGRGYTYLLSRAGVTGAENRAALPLNHLVAKLKEYNAAPPLQGFGISAPDQVKAAIDAGAAGAISGSAIVKIIEQHINEPEKMLAALKVFVQPMKAATRS [L127A], the “ddG of mutation (higher = less stable)” value was 0.73 kcal/mol and 0.55 kcal/mol; the denaturant m value was 2.55 kcal/mol/M and 1.1 kcal/mol/M; the unfolding free energy is 5.4 kcal/mol and 4.17 kcal/mol.
With MERYESLFAQLKERKEGAFVPFVTLGDPGIEQSLKIADTLIEAGADALELGIPFSDPLADGPTIQNATLRAFAAGVTPAQCFEMLALIRQKHPTIPIGLLMYANLVFNKGIDEFYAQCEKVGVDSVLVADVPVEESAPFRQAALRHNVAPIFICPPNADDDLLRQIASYGRGYTYLLSRAGVTGAENRAALPLNHLVAKLKEYNAAPPLQGFGISAPDQVKAAIDAGAAGAISGSAIVKIIEQHINEPEKMLAALKVFVQPMKAATRS [I37A], the “ddG of mutation (higher = less stable)” value is 1.41 kcal/mol and 3.01 kcal/mol; the unfolding free energy was 4.72 kcal/mol and 1.71 kcal/mol.
Take MERYESLFAQLKERKEGAFVPFVTLGDPGIEQSLKIIDTLIEAGADALELGIPFSDPLADGPTIQNATLRAFAAGVTPAQCFEMLALIRQKHPTIPIGALMYANLVFNKGIDEFYAQCEKVGVDSVLVADVPVEESAPFRQAALRHNVAPIFICPPNADDDLLRQIASYGRGYTYLLSRAGVTGAENRAALPLNHLVAKLKEYNAAPPLQGFGISAPDQVKAAIDAGAAGAISGSAIVKIIEQHINEPEKMLAALKVFVQPMKAATRS [L99A]: the “ddG of mutation (higher = less stable)” value was 1.69 kcal/mol and 2.38 kcal/mol; the denaturant m value was 2.39 kcal/mol/M and 0.94 kcal/mol/M; the unfolding free energy is 4.44 kcal/mol and 2.34 kcal/mol.
